# Data taken from the DeepSol protein solubility set.
# Assay: soluble on expression in E. coli; label from the status in PepcDB or PDB records
row,Sequence,soluble on expression in E. coli
1,MKAVGLVVEYNPFHNGHLYHAQTAKLQTGCDTAVAVMSGHFLQRGEPAVVSKWARTKMALQSGVDLVIELPYLYAVQKADIFARGSVSILNELECEALFFGSENGDIKPFLETAQLIDEHKHILNDRIKEELKKGASYPAAAAIAFSSILHTESALDLSKPNNILGYQYVTSILTGGYPMKPYTTARISSDYHDADLPEGENHIASATSIRKAMIGQNLEACLRFLPAASARELAAYRKSFGLWHTPESYFSYLKYSLSTVTARELQQVYEVEEGLEHRIIRSIRKSSSYQEFMELLKTKRYTWTRLQRMNTHILTRTKKQDMQKLLDNDKAPYIRLLGMTKKGQAYLSEKKKALSVPLVSKLSSFSHPALDLDVKASRIYSLPIEEPLRTEFDLQEYG,not soluble
2,MKAVINNTNPENTPPTRAIKRLERDVLRMGALVEQSFRLSHQALFARDLTAAEELPRLDKKIDRFYRQIESDCTSIITLQAPTAQDLRCLSAFMQLVRDLERIGDYAKDLAEIAIKIFPYPPHASLPEIALMSNNAQAMLATSLLALADLDEINGRRLKYLDDDVDHAYNQLYHTLAHQKDVPGVIEPILLLTLAIRCLERMADHATNIGQRVAYIVTGQR,not soluble
3,MKAVVPTGKIYLGSPFYSDAQRERAAKAKELLAKNPSIAHVFFPFDDGFTDPDEKNPEIGGIRSMVWRDATYQNDLTGISNATCGVFLYDMDQLDDGSAFEIGFMRAMHKPVILVPFTEHPEKEKKMNLMIAQGVTTIIDGNTEFEKLADYNFNECPSNPVRGYGIY,soluble
4,MKCKKCGRKAVANLKAYGIALCEKCYPEFYRNLVKRSIKRFRILRPEERVLIAISGGKDSSALAAVLKELDYDAELLYIDLGIGNYSEESERVVRELSSSLDLSLNVVRLRDYGFTVDDVARKMRRKTCSACGTAKRYIMNRFARENSFDVVATGHTAEDIASFYIKNVAGGTRVWAEKLMPRNEPFDEKIVTRAKPLFEVSEKENMLYVLVNDIPHTLMECPHAPNPEWKEIVYDIERRKPGFVKNFVRGLVRPAEEFEETKYCKICGEVSSGDVCAFCRLRERLS,not soluble
5,MKCVVCGRNEAVEHGMCSSCIYDNTNVENIGPVSLVFCPKCGSIRIGKKWYRDSYGNKLLPMLLDEVKCSDVNARISGDEKGIFFDEKNKQIILPVTIKRSNMKDKIQNVAIPYSVTYISCPTCNKITGSYFEATIQLRTVSTKYDNILESVLESIEAIVEKRKKEDAESFISKVEKKPEGIDIYLGKRTDGDVVSSFVLDHFFSSIIVTKTLAGVKDGKKFFRFTYSLRILDAKEGSLEHHHHHH,not soluble
6,MKDCSNGCSAECTGEGGSKEVVGTFKAKDLIVTPATILKEKPDPNNLVFGTVFTDHMLTVEWSSEFGWEKPHIKPLQNLSLHPGSSALHYAVELFEGLKAFRGVDNKIRLFQPNLNMDRMYRSAVRATLPVFDKEELLECIQQLVKLDQEWVPYSTSASLYIRPTFIGTEPSLGVKKPTKALLFVLLSPVGPYFSSGTFNPVSLWANPKYVRAWKGGTGDCKMGGNYGSSLFAQCEAVDNGCQQVLWLYGEDHQITEVGTMNLFLYWINEDGEEELATPPLDGIILPGVTRRCILDLAHQWGEFKVSERYLTMDDLTTALEGNRVREMFGSGTACVVCPVSDILYKGETIHIPTMENGPKLASRILSKLTDIQYGREERDWTIVLS,soluble
7,MKDEISNPDLGAIYTTKILGVLLENWPKQTYLCCSEVTGIDFDEESVFDSFSPQPYPKEWEVCRDLIVWLENEGFIRSEGSRGSSFGFFSVEITMSAMTALNQVPDPLDPESTRTLKDTLKDIAKSGSGKLADKIMDKAFFAFVTMLEKSAG,not soluble
8,MKDFVKGRKIYTRTYNKCDPSLVVVERAKRRLGETKYNPFYNNCEHFARYCKVGIPISDQVENYKSLVGNSGIDASDALLNNGKSIVDTTQNLMKTTLDKISNFWKNDNDDDDGFFEYYLEHHHHHH,not soluble
9,MKEQILEKLKTVKYPGFEKDIVSFNFVKDIKIQDDGVFIDIEIVSANPEVANEIRKNTIEALSSLALKNIELNIITPKIPEEKSNSRSGKNIAPQVKNFIMVSSGKGGVGKSTTTVNLAISMAKMGKRVGILDADIYGPNIPRMLGETKTQPEVVGQRLKPILTHGVYMMSMGVLIEEGQGLMWRGAMIMKAIEQLLADVIWPELDVLFLDMPPGTGDAQITSAQSIPIAAGVCVSTPQTVSLDDSKRALDMFNKLHIPIAGVIENMSGFLCPDNGKEYDIFGKGTAEDMAKAYKSEVLAQIPIEMIVREGGDEGKPVSFYHPESVSSKRYLMAAEKIWSFIEKINNEGGADNSAIQPVMNGKSACSHLEHHHHHH,soluble
10,MKERESVQDQSDPSETDSEELLQLDGKSISEWVSEIDAISKEVEAELVSRDIGCHLVQVLEAVNTVLFDLRGFKRTSITLDPENSYLHSVLNCRCSTAFLISVIYIEVCKRLNVPIVGSPVGEDFLIWPKTEYPEELFKATSGQSLFSIVNGRCVDDPGSMASDLTAKSLQDLDMATNRDIIGIALANLIRLHWRRASKSSHGLMLTSPLSQLNNISSSNFPLLRPQDLRLAIAAAERLLILQPHNWALRRDLGMMLYYDRQYGEAVQELSICMAFAPPEEEAVLEPFVERLHLLRLISSLKPLGSDRLTVP,soluble
11,MKFEILQQLNAERAARRPAIVVTDTATGAQRLVKAADIAADPLAAELGKQLRMGKSASIEIDGRKLFLNVYAPTAKLVIVGAVHISQALAPLARSLGYDVTVVDPRTAFASPERFPDVPLIAEWPDVALPPLNIDHYTAFVALTHDPKIDDPALLHAFARDCFYIGALGSKKTHAKRLERLKGQGASDADLGRIHAPIGLAIGAVSPSEIAVSIMAEITAALRLPASSKAAAA,not soluble
12,MKFIDEYRDPARARALLDRIRQVARHDWTIMEICGGQTHSILRNGIDQLLPPNVQLVHGPGCPVCVTPLETIERALAIAARPNTILTSFGDMLRVPGNSKDLFMARSEGADVRVVFSPLEALQIARDNPSKEVVFLGVGFETTAPANAMAVHQAAREGLTNFSELVSQVMVPPAMRAMLSSPGNRVQGFLAAGHVCAIMGYEEYEPVAAEFGVPIVPAGFEPVDLLDAILKTVELLEAGRSGVVNAYGRVVSREGNPEARRVMQEVFEVADRPWRGIGVIPASGLVLRPEYKRFDAEKRFDVGHIAPQESPLCRSGEVLQGHLKPSDCPAFGKECTPQTPFGATMVSSEGACAAYYRYHRNSNT,soluble
13,MKFKIHSDITYQVMSPTTFIFNVHALRTESQHILDESLIVTPPIEIEEFSYNSGTSRFVRLKATENTTFSMSYTATVDTQYKVIDQRQELETVPVVDLDGDIIPFLFPSRYCQSDKLQKLAYKEFGKIENVYSKVLAITDWIYNNVEYISGSTNSQTSAFDTITERAGVCRDFAHLGIALCRALSIPARYFTGYAFKLNPPDFHACFEAYIGGNWIIFDATRLVPLNGLVKIATGRDAADAAVASIFGNASSTNMHVECASLDTDFTPFWYDKNSLKGLSFQ,soluble
14,MKFKRLRTSENKLYYKAMELYKISFPFHEQRKSSLQEEILKNKEYQFNLIYDKNQFVGIILCWETDDFIYVEHFCIFPEMRNNRYGQRALELLNKKGKTIILEIDLPIDEISIYRKAFYERVKYKTNNYEHIHP,not soluble
15,MKFLPLLALLISPFVSALTLDDLQQRFTEQPVIRAHFDQTRTIKDLPQPLRSQGQMLIARDQGLLWDQTSPFPMQLLLDDKRMVQVINGQPPQIITAENNPQMFQFNHLLRALFQADRKVLEQNFRVEFADKGEGRWTLRLTPTTTPLDKIFNTIDLAGKTYLESIQLNDKQGDRTDIALTQHQLTPAQLTDDERQRFAAQ,not soluble
16,MKFLTVSDDMNFLRQVNTLVAGKGDMDSVIIGEGDAKGLGSKVLYRAKKGTPFDAVSEGILKIAGNYDYIAIGSTEVGREIAGYLSFKTGFYTATEIFSLEFNGQKAHTKRFFYGGKTVIEEESDARILTVAPGVIEAKDLGTTPEIRDLEIGQSRIKITKFVSKAGGSVRLEDAKVIVSVGRGIGSKENIAKIEPLAKALNGEIAGSRPVCMDYGWLSEDRQVGLSGKKVSPKVYIALGISGQIQHIAGMRNSKTVIAINKDKNAPIFQECDYGIVGDLFTVVPKILEQLKQ,not soluble
17,MKGAEALLRALEREGVEVIFGHPGGAIMPTYDALYDSPIRHILVRHEQGGVHAATAYARASGRVGVVMATSGPGALNLVTGLADAMMDSTPVVAITGNVPRALIGTDAFQEADVTGVTMPITKHNYLVQDVNEIPRVVKEAFHIAATGRPGPVLIDIPKDVQLAEFTGSFDVKLDLPGYKPTLKGHPKQIERALDALEKAERPVLMVGGGAQHAHAELLAFAEKTGLPVITTLMGLGAFPGNHPLWLGMPGMHGTVAANRAIHHADVILAIGLRFDDRVTGKVSRFAPHAHTIIHVDIDPAEIGKVVRTHIPIVGDSRLVLKELLKGAKALRLAAWWRELEEWRTRYPLRYRPKPHLQSQEVIRAFYEATGGHAIVTTGVGQHQMFAAQFFPVTRPRSFLTSGGLGTMGVGLPFAIGAKIARPEELVIDFDGDGSFQMTLQELATVVKYKLDVKVVILNNGYLGMVRQWQDLFHAKRYSEVYLADSNPDFARLAEAYGIKGVRVERKEDLMKGVEAVLNADGPVVAEFKVYQEEGVFPMIPAGGAAEDMILEPPEEKEEVGA,soluble
18,MKGGLLVDDEFIHGAARSLTVRKTSLFFAGDGFTVYDCKGSLVFRVDSYGGPNTRDTDEVVLMDAHGRCLLTLRRKRPSLRRRWEGYLGERSDGQKPIFGVRRSSIIGRNSVTVEVYGDYQCSEYLIEGSFGARNCTVVEAETRRKVAEIRRKVDASTNVMLGKDVFSLNVKPGFDGAFAMGLVLVLDQIYGDDLLEVGEEQVHPSAEDL,soluble
19,MKGLILAAGRGTRLRPLTHTRPKPAIRVAGRPIIHYAVENLLEAGVREIGVVVSPETERDLKVALEGYPVRYVLQEEPQGLAHAVDVARGFLGESPFVLYLGDNLFQKGIRRFLEAFKPGVSAVIALVRVEDPRQFGVAVLEGNRVVRLLEKPKDPPSDLAVAGVYVFSPEVLEVVRGLKPSARGEYEITDAIQGLIDRGKTVVGVEVEGWWKDTGRHQDLLDANRLLLEELTPKVEGDVVESQLTGRVVVEKGAKVVRSTVIGPAHIGAGAVVEEAFVGPFTSVGPRARVVRSEVEYSLLEEEAVVEEVRLRLQECILGVRAEVKSRDGLPRAHRLILGDLSQVELA,soluble
20,MKGMSKMPQFNLRWPGGGPQFNLRWPREVLDLVRKVAEENGRSVNSEIYQRVMESFKKEGRIGGTGGSGGGREVLDLVRKVAEENGRSVNSEIYQRVMESFKKEGRIGAHHHHHHKNQHE,soluble
21,MKGTQMLALNKKCWDIVAPYFFQVDCLPKYGPYTASEDEIHLFDSIKGKKVLDIGCGSGHSLQYMAEHGAEELWGLDLSSTQIETAHETLQSWNPKLICGAMEEERDIPKGYFDIVYSIYALGWTSDLRKTLELIYSYVKPGGSFIFSWEHPVYSNLMYGTEEIAFSSSYHEETPITFETFKGEDVQATLYKRKMSTYINELNRVGFTIERIEEPEPSSSFDEKLAEPSTKYYSLHKARMVPTTFIIKARKLEHHHHHH,soluble
22,MKGVVEGQCGQQNALVGLANTFGTSNQRVAPSNAAASLLPSSSMGEQMANEFLRQQARTMAPTSFSMKSMQNNLPQASASSSLAANWTKEFQPRQNQLASQWSQQYTSSAPSMESAWRQVQAPSMTSTSSHQPITDAGMWSSEYLDTVDTSLTKSSGTQNWADDFMEQQDNYGMENTWKDAQAFEQRWEEIKRDMEKDESLQSPENYVYQEANPFTTMSDPLMEGDNLMRNGDIGNAMLAYEAAVQKDPQDARAWCKLGLAHAENEKDQLAMQAFQKCLQIDAGNKEALLGLSVSQANEGMENEALHQLDKWMSSYLGSNSTQVTTTPPLYSSFLDSDTFNRVEARFLDAARQQGATPDPDLQNALGVLYNLNRNFARAVDSLKLAISKNPTDARLWNRLGATLANGDHTAEAISAYREALKLYPTYVRARYNLGISCMQLSSYDEALKHFLSALELQKGGNDASGIWTTMRSAAIRTSNVPDNLLRAVERRDLAAVKASLV,not soluble
